According to IntAct's records for PubMed 31515488:

B1: Angiomotin (Homo sapiens), Q4VCS5 (parent)
chain: MRNSEEQPSGGTTVLQRLLQEQLRYGNPSENRSLLAIHQQATGNGPPFPSGSGNPGPQSDVLSPQDHHQQLVAHAARQEPQGQEIQSENLIMEKQLSPRMQNNEELPTYEEAKVQSQYFRGQQHASVGAAFYVTGVTNQKMRTEGRPSVQRLNPGKMHQDEGLRDLKQGHVRSLSERLMQMSLATSGVKAHPPVTSAPLSPPQPNDLYKNPTSSSEFYKAQGPLPNQHSLKGMEHRGPPPEYPFKGMPPQSVVCKPQEPGHFYSEHRLNQPGRTEGQLMRYQHPPEYGAARPAQDISLPLSARNSQPHSPTSSLTSGGSLPLLQSPPSTRLSPARHPLVPNQGDHSAHLPRPQQHFLPNQAHQGDHYRLSQPGLSQQQQQQQQQHHHHHHHQQQQQQQPQQQPGEAYSAMPRAQPSSASYQPVPADPFAIVSRAQQMVEILSDENRNLRQELEGCYEKVARLQKVETEIQRVSEAYENLVKSSSKREALEKAMRNKLEGEIRRMHDFNRDLRERLETANKQLAEKEYEGSEDTRKTISQLFAKNKESQREKEKLEAELATARSTNEDQRRHIEIRDQALSNAQAKVVKLEEELKKKQVYVDKVEKMQQALVQLQAACEKREQLEHRLRTRLERELESLRIQQRQGNCQPTNVSEYNAAALMELLREKEERILALEADMTKWEQKYLEENVMRHFALDAAATVAAQRDTTVISHSPNTSYDTALEARIQKEEEEILMANKRCLDMEGRIKTLHAQIIEKDAMIKVLQQRSRKEPSKTEQLSCMRPAKSLMSISNAGSGLLSHSSTLTGSPIMEEKRDDKSWKGSLGILLGGDYRAEYVPSTPSPVPPSTPLLSAHSKTGSRDCSTQTERGTESNKTAAVAPISVPAPVAAAATAAAITATAATITTTMVAAAPVAVAAAAAPAAAAAPSPATAAATAAAVSPAAAGQIPAAASVASAAAVAPSAAAAAAVQVAPAAPAPVPAPALVPVPAPAAAQASAPAQTQAPTSAPAVAPTPAPTPTPAVAQAEVPASPATGPGPHRLSIPSLTCNPDKTDGPVFHSNTLERKTPIQILGQEPDAEMVEYLI
partner: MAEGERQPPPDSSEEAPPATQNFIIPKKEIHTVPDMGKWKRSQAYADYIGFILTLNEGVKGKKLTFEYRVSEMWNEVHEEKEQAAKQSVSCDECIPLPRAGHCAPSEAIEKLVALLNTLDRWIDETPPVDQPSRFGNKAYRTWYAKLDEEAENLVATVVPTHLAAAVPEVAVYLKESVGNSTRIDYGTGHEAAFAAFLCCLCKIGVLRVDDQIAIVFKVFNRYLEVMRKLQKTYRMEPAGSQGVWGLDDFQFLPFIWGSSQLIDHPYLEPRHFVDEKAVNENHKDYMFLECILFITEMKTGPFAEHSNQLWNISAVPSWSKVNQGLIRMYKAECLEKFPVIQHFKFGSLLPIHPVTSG
B2: Dynein light chain Tctex-type 3 (Homo sapiens), P51808 (parent)
chain: MEEYHRHCDEVGFNAEEAHNIVKECVDGVLGGEDYNHNNINQWTASIVEQSLTHLVKLGKAYKYIVTCAVVQKSAYGFHTASSCFWDTTSDGTCTVRWENRTMNCIVNVFAIAIVL
B3: Ras-related protein Rab-4A (Homo sapiens), P20338 (parent)
chain: MSQTAMSETYDFLFKFLVIGNAGTGKSCLLHQFIEKKFKDDSNHTIGVEFGSKIINVGGKYVKLQIWDTAGQERFRSVTRSYYRGAAGALLVYDITSRETYNALTNWLTDARMLASQNIVIILCGNKKDLDADREVTFLEASRFAQENELMFLETSALTGENVEEAFVQCARKILNKIESGELDPERMGSGIQYGDAALRQLRSPRRAQAPNAQECGC
partner: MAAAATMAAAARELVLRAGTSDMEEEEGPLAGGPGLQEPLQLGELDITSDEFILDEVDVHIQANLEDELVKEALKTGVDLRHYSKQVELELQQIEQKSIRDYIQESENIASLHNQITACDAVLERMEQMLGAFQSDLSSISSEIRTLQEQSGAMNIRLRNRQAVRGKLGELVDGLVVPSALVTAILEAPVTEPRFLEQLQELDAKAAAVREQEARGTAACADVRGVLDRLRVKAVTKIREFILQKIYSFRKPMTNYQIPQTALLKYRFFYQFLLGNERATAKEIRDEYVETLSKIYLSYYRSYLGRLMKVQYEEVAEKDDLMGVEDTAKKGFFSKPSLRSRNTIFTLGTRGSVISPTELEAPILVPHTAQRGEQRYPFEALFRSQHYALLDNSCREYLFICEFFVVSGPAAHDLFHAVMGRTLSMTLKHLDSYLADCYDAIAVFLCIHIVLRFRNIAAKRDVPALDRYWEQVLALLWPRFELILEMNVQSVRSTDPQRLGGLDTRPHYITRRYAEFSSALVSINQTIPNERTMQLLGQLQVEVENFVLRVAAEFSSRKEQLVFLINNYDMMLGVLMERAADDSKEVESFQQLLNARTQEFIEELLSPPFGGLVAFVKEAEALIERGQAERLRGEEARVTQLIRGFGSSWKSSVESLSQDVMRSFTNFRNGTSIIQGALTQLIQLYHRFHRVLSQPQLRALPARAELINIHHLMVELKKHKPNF
B4: Microtubule-associated tumor suppressor candidate 2 (Homo sapiens), Q5JR59-3 (parent)
chain: MGHCCCKPYNCLQCLDKTNESALVKEKELSIELANIRDEVAFHTAKCEKLQKEKEELERRFEDEVKRLGWQQQAELQELEERLQLQFEAEMARLQEEHGDQLLSIRCQHQEQVEDLTASHDAALLEMENNHTVAITILQDDHDHKVQELMSTHELEKKELEENFEKLRLSLQDQVDTLTFQSQSLRDRARRFEEALRKNTEEQLEIALAPYQHLEEDMKSLKQVLEMKNQQIHEQEKKILELEKLAEKNIILEEKIQVLQQQNEDLKARIDQNTVVTRQLSEENANLQEYVEKETQEKKRLSRTNEELLWKLQTGDPTSPIKLSPTSPVYRGSSSGPSSPARVSTTPR
partner: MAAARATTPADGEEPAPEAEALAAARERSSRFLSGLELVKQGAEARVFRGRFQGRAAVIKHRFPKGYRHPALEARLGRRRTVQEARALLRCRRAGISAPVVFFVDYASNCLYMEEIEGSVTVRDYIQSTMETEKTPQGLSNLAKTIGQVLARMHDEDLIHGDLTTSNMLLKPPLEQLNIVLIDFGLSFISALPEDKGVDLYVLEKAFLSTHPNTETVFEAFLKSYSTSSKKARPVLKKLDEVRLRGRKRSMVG
B5: Enhancer of mRNA-decapping protein 3 (Homo sapiens), Q96F86 (parent)
chain: MATDWLGSIVSINCGDSLGVYQGRVSAVDQVSQTISLTRPFHNGVKCLVPEVTFRAGDITELKILEIPGPGDNQHFGDLHQTELGPSGAGCQVGINQNGTGKFVKKPASSSSAPQNIPKRTDVKSQDVAVSPQQQQCSKSYVDRHMESLSQSKSFRRRHNSWSSSSRHPNQATPKKSGLKNGQMKNKDDECFGDDIEEIPDTDFDFEGNLALFDKAAVFEEIDTYERRSGTRSRGIPNERPTRYRHDENILESEPIVYRRIIVPHNVSKEFCTDSGLVVPSISYELHKKLLSVAEKHGLTLERRLEMTGVCASQMALTLLGGPNRLNPKNVHQRPTVALLCGPHVKGAQGISCGRHLANHDVQVILFLPNFVKMLESITNELSLFSKTQGQQVSSLKDLPTSPVDLVINCLDCPENVFLRDQPWYKAAVAWANQNRAPVLSIDPPVHEVEQGIDAKWSLALGLPLPLGEHAGRIYLCDIGIPQQVFQEVGINYHSPFGCKFVIPLHSA
B6: Baculoviral IAP repeat-containing protein 7 (Homo sapiens), Q96CA5 (parent)
chain: MGPKDSAKCLHRGPQPSHWAAGDGPTQERCGPRSLGSPVLGLDTCRAWDHVDGQILGQLRPLTEEEEEEGAGATLSRGPAFPGMGSEELRLASFYDWPLTAEVPPELLAAAGFFHTGHQDKVRCFFCYGGLQSWKRGDDPWTEHAKWFPSCQFLLRSKGRDFVHSVQETHSQLLGSWDPWEEPEDAAPVAPSVPASGYPELPTPRREVQSESAQEPGGVSPAEAQRAWWVLEPPGARDVEAQLRRLQEERTCKVCLDRAVSIVFVPCGHLVCAECAPGLQLCPICRAPVRSRVRTFLS
partner: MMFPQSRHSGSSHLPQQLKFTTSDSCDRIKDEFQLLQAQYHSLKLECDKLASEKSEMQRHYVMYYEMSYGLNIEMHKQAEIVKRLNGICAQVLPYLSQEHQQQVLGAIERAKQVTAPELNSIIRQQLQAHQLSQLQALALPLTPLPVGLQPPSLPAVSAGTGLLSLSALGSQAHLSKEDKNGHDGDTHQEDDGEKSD
B7: Mitochondrial fission 1 protein (Homo sapiens), Q9Y3D6 (parent)
chain: MEAVLNELVSVEDLLKFEKKFQSEKAAGSVSKSTQFEYAWCLVRSKYNDDIRKGIVLLEELLPKGSKEEQRDYVFYLAVGNYRLKEYEKALKYVRGLLQTEPQNNQAKELERLIDKAMKKDGLVGMAIVGGMALGVAGLAGLIGLAVSKSKS
partner: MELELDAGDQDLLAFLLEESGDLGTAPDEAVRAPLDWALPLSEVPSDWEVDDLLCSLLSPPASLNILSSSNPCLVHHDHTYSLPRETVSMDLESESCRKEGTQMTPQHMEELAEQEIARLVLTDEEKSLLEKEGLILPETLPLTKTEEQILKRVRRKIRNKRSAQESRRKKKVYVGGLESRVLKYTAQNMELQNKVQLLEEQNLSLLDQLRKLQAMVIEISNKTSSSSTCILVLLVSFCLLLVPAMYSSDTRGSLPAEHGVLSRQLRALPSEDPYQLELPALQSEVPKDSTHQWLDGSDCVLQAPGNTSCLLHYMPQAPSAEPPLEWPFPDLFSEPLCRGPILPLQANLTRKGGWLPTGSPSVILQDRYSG
B8: Vacuolar protein sorting-associated protein 37B (Homo sapiens), Q9H9H4 (parent)
chain: MAGAGSEARFAGLSLVQLNELLEDEGQLTEMVQKMEETQNVQLNKEMTLASNRSLAEGNLLYQPQLDTLKARLTQKYQELQVLFEAYQIKKTKLDRQSSSASLETLLALLQAEGAKIEEDTENMAEKFLDGELPLDSFIDVYQSKRKLAHMRRVKIEKLQEMVLKGQRLPQALAPLPPRLPELAPTAPLPYPAPEASGPPAVAPRRIPPPPPPVPAGRLATPFTAAMSSGQAVPYPGLQCPPLPPRVGLPTQQGFSSQFVSPYPPPLPQRPPPRLPPHQPGFILQ
partner: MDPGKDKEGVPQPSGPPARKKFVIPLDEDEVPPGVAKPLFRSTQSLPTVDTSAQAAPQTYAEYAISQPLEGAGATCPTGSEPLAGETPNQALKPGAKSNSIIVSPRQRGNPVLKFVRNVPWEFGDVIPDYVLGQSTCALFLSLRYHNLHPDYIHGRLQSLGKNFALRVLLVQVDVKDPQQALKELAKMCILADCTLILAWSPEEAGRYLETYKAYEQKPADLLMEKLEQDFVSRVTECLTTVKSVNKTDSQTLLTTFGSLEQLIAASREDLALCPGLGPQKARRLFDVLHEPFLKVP
B9: Serine/threonine-protein kinase PAK 6 (Homo sapiens), Q9NQU5 (parent)
chain: MFRKKKKKRPEISAPQNFQHRVHTSFDPKEGKFVGLPPQWQNILDTLRRPKPVVDPSRITRVQLQPMKTVVRGSAMPVDGYISGLLNDIQKLSVISSNTLRGRSPTSRRRAQSLGLLGDEHWATDPDMYLQSPQSERTDPHGLYLSCNGGTPAGHKQMPWPEPQSPRVLPNGLAAKAQSLGPAEFQGASQRCLQLGACLQSSPPGASPPTGTNRHGMKAAKHGSEEARPQSCLVGSATGRPGGEGSPSPKTRESSLKRRLFRSMFLSTAATAPPSSSKPGPPPQSKPNSSFRPPQKDNPPSLVAKAQSLPSDQPVGTFSPLTTSDTSSPQKSLRTAPATGQLPGRSSPAGSPRTWHAQISTSNLYLPQDPTVAKGALAGEDTGVVTHEQFKAALRMVVDQGDPRLLLDSYVKIGEGSTGIVCLAREKHSGRQVAVKMMDLRKQQRRELLFNEVVIMRDYQHFNVVEMYKSYLVGEELWVLMEFLQGGALTDIVSQVRLNEEQIATVCEAVLQALAYLHAQGVIHRDIKSDSILLTLDGRVKLSDFGFCAQISKDVPKRKSLVGTPYWMAPEVISRSLYATEVDIWSLGIMVIEMVDGEPPYFSDSPVQAMKRLRDSPPPKLKNSHKVSPVLRDFLERMLVRDPQERATAQELLDHPFLLQTGLPECLVPLIQLYRKQTSTC

Variants of: B1
Details: with ptpa_human PTPA

T899A was tested. Which “effect of a mutation on the interaction” value did it give?
Its value is “with no effect”.

Variants of: B2
Details: with dc1i2_human DYNC1I2, Q13409
dc1i2_human DYNC1I2, Q13409, sequence (Q13409 whole entry): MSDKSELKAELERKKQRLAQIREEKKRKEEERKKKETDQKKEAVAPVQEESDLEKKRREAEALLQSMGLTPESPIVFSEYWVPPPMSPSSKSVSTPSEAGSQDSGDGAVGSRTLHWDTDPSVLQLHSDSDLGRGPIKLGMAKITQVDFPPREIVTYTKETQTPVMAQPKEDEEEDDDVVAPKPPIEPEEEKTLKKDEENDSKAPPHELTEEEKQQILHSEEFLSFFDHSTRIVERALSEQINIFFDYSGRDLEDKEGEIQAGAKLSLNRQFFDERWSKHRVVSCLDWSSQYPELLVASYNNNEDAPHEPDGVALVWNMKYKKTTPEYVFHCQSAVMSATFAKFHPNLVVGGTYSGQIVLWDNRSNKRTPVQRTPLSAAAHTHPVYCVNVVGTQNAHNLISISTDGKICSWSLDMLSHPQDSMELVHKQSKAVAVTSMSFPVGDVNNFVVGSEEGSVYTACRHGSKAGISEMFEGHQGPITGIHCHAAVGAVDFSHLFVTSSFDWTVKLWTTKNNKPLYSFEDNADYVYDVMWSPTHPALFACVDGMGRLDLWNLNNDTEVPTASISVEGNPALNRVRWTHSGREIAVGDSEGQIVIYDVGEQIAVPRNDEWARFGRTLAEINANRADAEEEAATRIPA

How did the “effect of a mutation on the interaction” value turn out when A75T was run?
The value was “with no effect”.

Variants of: B3
Details: with vps52_human VPS52, Q8N1B4

For R207H, which “effect of a mutation on the interaction” value is on record?
The value was “with no effect”.

Variants of: B4
Details: with prpk_human TP53RK

With A89V as the variant, how does the “effect of a mutation on the interaction” value read?
The value was “with no effect”.

Variants of: B5
Details: with ddx6_human DDX6, P26196
ddx6_human DDX6, P26196, sequence (P26196 whole entry): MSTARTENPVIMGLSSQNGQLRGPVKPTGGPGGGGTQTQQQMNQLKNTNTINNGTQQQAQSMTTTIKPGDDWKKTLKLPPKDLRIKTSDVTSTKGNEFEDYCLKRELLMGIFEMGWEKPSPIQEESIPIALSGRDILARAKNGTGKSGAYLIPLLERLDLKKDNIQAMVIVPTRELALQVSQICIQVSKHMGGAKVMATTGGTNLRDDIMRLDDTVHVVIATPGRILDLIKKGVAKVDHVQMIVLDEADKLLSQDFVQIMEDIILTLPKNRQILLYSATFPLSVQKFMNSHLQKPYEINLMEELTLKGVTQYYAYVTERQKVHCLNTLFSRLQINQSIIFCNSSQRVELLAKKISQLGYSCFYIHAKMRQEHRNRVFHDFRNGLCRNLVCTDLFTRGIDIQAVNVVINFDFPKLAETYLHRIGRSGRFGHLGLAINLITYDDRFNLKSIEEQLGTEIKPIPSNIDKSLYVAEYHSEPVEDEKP

R232G was tested. Which “effect of a mutation on the interaction” value did it give?
Its value is “with no effect”.

Variants of: B6
Details: with tle5_human TLE5, Q08117

How did the “effect of a mutation on the interaction” value turn out when H164R was run?
The value was “with no effect”.

Variants of: B6
Details: with tle5_human TLE5, Q08117
Remark: another data set of the same source

For H164R, which “effect of a mutation on the interaction” value is on record?
Its value is “with no effect”.

Variants of: B7
Details: with creb3_human CREB3, O43889

V124M was tested. Which “effect of a mutation on the interaction” value did it give?
The value was “with no effect”.

Variants of: B8
Details: with ercc1_human ERCC1, P07992

Which “effect of a mutation on the interaction” value does the source give for M151I here?
Its value is “with no effect”.

Variants of: B9
Details: with rhoj_human RHOJ

With V54M as the variant, how does the “effect of a mutation on the interaction” value read?
The value was “with no effect”.

Which “effect of a mutation on the interaction” value does the source give for R103C here?
The value was “with no effect”.

H215R was tested. Which “effect of a mutation on the interaction” value did it give?
Its value is “with no effect”.
